Results on 98 substances are retold here after the supplement of paper PMC12042874.

± gives the uncertainty stated by the source.

This series can be described thus: amyloid nucleation score (Sup35N fusion, yeast selection) (log enrichment); library NNK3; higher = more nucleation; inactive = no reads after selection. The procedure, abridged:
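The nucleation score is the log enrichment of output over input reads, calculated with DiMSum and centred on the mode score of non-aggregating sequences. Sequences with under 100 input reads were excluded. Reads came from Illumina sequencing of plasmid inserts from psi-negative yeast expressing Sup35N fused to peptides of 20 random codons, induced 24 hours with 100 μM copper sulfate and grown 7 days at 30°C without adenine and uracil.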
For DCCKFFLKDSRSRSFSWSIY, the amyloid nucleation score came to 1.66 ± 0.08. The entry for DCDRILLV is “inactive”; for DCERVFSYMRKDQVPPVTLS it is “inactive”. Next, DCFLLSTIVALYRDYRYIGT: “inactive”; DCGKRSTTINFAWNGAVQPD: 1.04 ± 0.18. The entry for DCMSHLLF is “inactive”; for DCSFMPTLYLGPTTFFFWHL it is 2.25 ± 0.064. As to DCTSILELVGGARPTHSGLE, the amyloid nucleation score result is “inactive”. Next, DCVYSSPCGVALIDLGAGLK: “inactive”.

With DCYKRSVMLKAARSWVNRSL, the amyloid nucleation score result was “inactive”. Next, DDCIIRAGWDLLQR: “inactive”; DDDLHWWKYRCVACDSLWEI: “inactive”; DDGFYMSVGIVSWFC: 0.843 ± 0.13. Next, DDRVVPVLYQTCSAVRR: “inactive”; DEMLHGCPDRVPNLGWY: “inactive”.

In the case of DERKNSIDSR, the amyloid nucleation score result is “inactive”.

Turning to DEYTSNVVSNFFEIRLWFFI, the amyloid nucleation score entry was “inactive”. Next, DFARFIPFRPDFNFWGRLTG: “inactive”; DFHSLKNDF: “inactive”. Next, DFMWLKGLNPSTLSLPWD: “inactive”; DFTLTPMWRHFEGFNKVAWG: “inactive”. With DFWLHCGDK, the amyloid nucleation score entry is “inactive”. Next, DFYRSEQGDWSNLHSC: “inactive”; DGVALFNVVRFVVGIDILLI: “inactive”.

For the substance DHLQVHYCGRHVLGAKKFAR, the amyloid nucleation score entry is “inactive”.

For the substance DHLSVWVSRLDTINCLREVG, the amyloid nucleation score result is “inactive”.

As to DHLWIPPWLYAPAMLWSWML, the amyloid nucleation score entry is “inactive”. Next, DICEIRTTIRAC: “inactive”; DIDRRQRVMHSPMKAWEEVG: -0.045 ± 0.98. The figure for DIHVKNCVVCMYSG is 2.44 ± 0.057; for DIIYTFHHAVNRLNKIFSV it is “inactive”. The entry for DIVANYQMM is “inactive”; for DIVTTHVGKSLG it is “inactive”. Turning to DKGVVPL, the amyloid nucleation score result is “inactive”.

For the substance DKMIGWGDWSSLY, the amyloid nucleation score entry was “inactive”. Regarding DKTYYYRDDSLV, the amyloid nucleation score result is “inactive”. The figure for DLFKCGRGHVIFVLSRLLIS is -0.459 ± 1.1; for DLGHQMVVRRHVLFLICCCN it is “inactive”. The figure for DLIGYSEEV is 0.449 ± 0.19; for DLISEKEQEPGRD it is 0.406 ± 0.21; for DLKTWSMLSFFGMYATYLIK it is “inactive”. Consider DLRCHGYC, for which the amyloid nucleation score result is “inactive”. The entry for DLRSITMCWCIIPTGRCVVA is “inactive”. The entry for DLSMGNCEVVGLESSTTICK is “inactive”; for DLTDNVFYWSRNTIDEVRVR it is “inactive”. Next, DLTNEMQVCVNV: -0.17 ± 0.88; DLWAIGWGPFRVCSLLPWPL: “inactive”. On to DLYCMPLAAVLFGGGC, for which the amyloid nucleation score entry was “inactive”. The entry for DMGLYLFFIYLCGVRDLLST is “inactive”; for DMIVNYCTAQRSFVSIVSIK it is “inactive”; for DMWKFTRLLFFCDSKRCSAD it is “inactive”. For DNLTVTFRCLHAYLGGLDFD, the amyloid nucleation score result is “inactive”. In the case of DNQFICLFVVEIGIVYDSYA, the amyloid nucleation score result was “inactive”. The entry for DNSCVMMKTGGRYFELFRVV is “inactive”; for DNSSLSMK it is “inactive”; for DNVSKSSIHTTLVLASFLCS it is 1.55 ± 0.11. Next, DNYMRILGLSYPGDFISNFW: “inactive”; DPIYVANARNHRLS: “inactive”; DPKTSYNADLAIGSCLLIDF: “inactive”.

Take DPSNACPWGR: the amyloid nucleation score entry is “inactive”. As to DPTSLGRQRLTRDKIPQNWS, the amyloid nucleation score entry was “inactive”. With DPVNLRC, the amyloid nucleation score entry is “inactive”. The entry for DQEVC is “inactive”. Next, DQIYSECLV: “inactive”. The entry for DQYLTVSHKTTTFRMCPQSG is “inactive”.

On to DRCNVGRYLG, for which the amyloid nucleation score result was “inactive”. As to DRFLLFFH, the amyloid nucleation score entry is “inactive”.

On to DRGFGYGSITKGINA, for which the amyloid nucleation score result is “inactive”. Next, DRNEQCDSL: “inactive”; DRRYEGGRKVQSYTVARPWS: “inactive”; DRSIS: “inactive”. The entry for DRYDSVYEDGLLLLMFFDHV is “inactive”; for DSADVMIAYASVVVVTIECC it is “inactive”; for DSCTEVFVKGVTRSVIVGKG it is “inactive”.

Take DSFSTDCVFYEIMCSEVRLA: the amyloid nucleation score result was “inactive”. Next, DSHFKVYVPRQLREAREPVK: “inactive”. DSLRWDYRL: the amyloid nucleation score entry was “inactive”. DSMCRYV came in with an amyloid nucleation score of 0.893 ± 0.12. Next, DSNGYKEGVDQNSGAKNTNK: “inactive”. Next, DSQLFKICGLVCTTYVALCF: -0.732 ± 0.59; DSRLSAEYMVRMGKVYIDDS: “inactive”.

For the substance DSSMIDRAENAH, the amyloid nucleation score entry was “inactive”. The entry for DSVMVYIRFIAMSSPQKG is “inactive”; for DSYCGLRDEWITRWLGCRWM it is “inactive”; for DTLYIASYEAVSGLRSPYER it is “inactive”. DTRGTARKPKSLSTRLEIRV: the amyloid nucleation score entry is “inactive”. As for DTYMISNVAGNSRYALHGFV, the amyloid nucleation score result was “inactive”. The entry for DVDFPSFAGFMVTISIGIFV is “inactive”; for DVDRTSCGGVSVRV it is “inactive”. Next, DVLLARCYNCLSAFRLNSLC: “inactive”; DVNFSLC: -0.002 ± 0.32; DVNGR: “inactive”. The entry for DVYSYKFDR is “inactive”; for DWEARCCREVTGNGVFESQK it is “inactive”.

As for DWRLRSFICRAVVVCCINGD, the amyloid nucleation score came to 1.54 ± 0.077. For the substance DWRQVYAYENSLWTVFSVWD, the amyloid nucleation score result is “inactive”. Next, DWTWMMS: “inactive”; DYGMLCSLLSGDISNSEVGI: “inactive”.
